Experimental data from publication PMC12871931 (2025).
Ends that are not written are not given here. * marks the point of attachment. 5‑TAMRA = 5-carboxytetramethylrhodamine, N-terminal label, CN(C)c1ccc2c(-c3ccc(C(=O)*)cc3C(=O)[O-])c3ccc(N(C)C)cc3[o+]c2c1

Tests used:
Assay in all cases: FP
[1] = molecular target: importin α1 (IMPα1), Arabidopsis thaliana, recombinant (Arabidopsis thaliana, UniProt Q96321 1-532)
[2] = molecular target: importin α3 (IMPα3), Arabidopsis thaliana, recombinant (Arabidopsis thaliana, UniProt O04294 1-531)
Chain of importin α3 (IMPα3), Arabidopsis thaliana, recombinant (O04294 whole entry): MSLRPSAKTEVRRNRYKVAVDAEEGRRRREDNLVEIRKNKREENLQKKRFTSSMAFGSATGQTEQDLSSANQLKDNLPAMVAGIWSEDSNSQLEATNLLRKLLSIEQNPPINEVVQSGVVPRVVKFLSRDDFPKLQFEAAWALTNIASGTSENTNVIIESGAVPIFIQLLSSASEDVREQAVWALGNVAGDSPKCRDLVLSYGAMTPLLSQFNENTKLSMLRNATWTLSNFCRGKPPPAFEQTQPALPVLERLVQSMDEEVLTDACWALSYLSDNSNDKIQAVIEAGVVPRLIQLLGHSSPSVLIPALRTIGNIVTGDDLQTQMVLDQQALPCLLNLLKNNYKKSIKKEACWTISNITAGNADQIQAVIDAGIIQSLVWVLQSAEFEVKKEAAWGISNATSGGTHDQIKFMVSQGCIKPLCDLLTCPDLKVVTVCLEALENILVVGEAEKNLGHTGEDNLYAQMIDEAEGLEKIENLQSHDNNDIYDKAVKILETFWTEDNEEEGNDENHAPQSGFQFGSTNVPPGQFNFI

[3] = molecular target: importin α2 (IMPα2), Arabidopsis thaliana, recombinant (Arabidopsis thaliana, UniProt F4JL11 1-535)
Chain of importin α2 (IMPα2), Arabidopsis thaliana, recombinant (F4JL11 whole entry): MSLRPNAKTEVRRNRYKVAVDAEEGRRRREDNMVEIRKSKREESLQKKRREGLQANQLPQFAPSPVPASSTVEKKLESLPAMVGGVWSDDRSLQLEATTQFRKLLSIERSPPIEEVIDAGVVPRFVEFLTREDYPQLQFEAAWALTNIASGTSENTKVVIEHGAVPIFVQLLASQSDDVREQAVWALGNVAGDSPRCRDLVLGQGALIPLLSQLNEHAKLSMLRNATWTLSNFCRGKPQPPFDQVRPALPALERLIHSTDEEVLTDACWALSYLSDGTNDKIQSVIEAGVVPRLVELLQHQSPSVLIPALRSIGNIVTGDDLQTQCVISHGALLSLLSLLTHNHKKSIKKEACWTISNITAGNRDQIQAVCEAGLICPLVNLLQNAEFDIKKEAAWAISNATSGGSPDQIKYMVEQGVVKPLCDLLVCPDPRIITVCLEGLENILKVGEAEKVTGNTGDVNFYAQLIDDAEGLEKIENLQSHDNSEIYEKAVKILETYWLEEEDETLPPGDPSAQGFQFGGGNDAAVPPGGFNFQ

Chain of importin α1 (IMPα1), Arabidopsis thaliana, recombinant (Q96321 whole entry): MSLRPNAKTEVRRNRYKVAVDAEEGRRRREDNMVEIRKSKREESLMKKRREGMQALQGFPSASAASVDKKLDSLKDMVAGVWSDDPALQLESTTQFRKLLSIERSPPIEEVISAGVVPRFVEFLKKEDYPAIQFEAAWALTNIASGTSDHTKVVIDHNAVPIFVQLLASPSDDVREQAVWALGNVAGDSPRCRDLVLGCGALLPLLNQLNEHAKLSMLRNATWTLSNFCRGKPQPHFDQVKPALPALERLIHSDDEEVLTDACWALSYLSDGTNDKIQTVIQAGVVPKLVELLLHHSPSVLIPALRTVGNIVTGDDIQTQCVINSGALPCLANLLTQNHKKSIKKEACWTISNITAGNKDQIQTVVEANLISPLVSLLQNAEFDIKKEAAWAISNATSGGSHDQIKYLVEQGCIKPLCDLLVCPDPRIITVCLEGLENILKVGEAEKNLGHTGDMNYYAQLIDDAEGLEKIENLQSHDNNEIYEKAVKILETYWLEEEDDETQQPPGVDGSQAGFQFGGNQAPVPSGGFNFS

{5‑TAMRA}-LKRYKRRL [TAMRA‐NOP‐1 (EIN2 NLS peptide, N‐terminally labeled with 5‐TAMRA)]
Kd [1]: 4.6 µM
Kd [2]: 5.4 µM
Kd [3]: 5.8 µM
